Source: patent US20180073027, “CD117 Ligand-Drug Conjugates For Targeted Cancer Therapy” (THE METHODIST HOSPITAL SYSTEM, published 2018)

Target: CD117 (KIT, c-Kit) (UniProt P10721 P10721:26-976)
Assay: flow; HEL cells, room temperature 30 min; no binding to CD117-negative CA46, U937, MDA-MB-468, LNCaP cells
Conditions: tags: endogenous on HEL AML cell line (ATCC) or primary AML marrow cells; label: 5'-Cy3; G4

Sequence of CD117 (KIT, c-Kit) (P10721 26-976, one chain of several): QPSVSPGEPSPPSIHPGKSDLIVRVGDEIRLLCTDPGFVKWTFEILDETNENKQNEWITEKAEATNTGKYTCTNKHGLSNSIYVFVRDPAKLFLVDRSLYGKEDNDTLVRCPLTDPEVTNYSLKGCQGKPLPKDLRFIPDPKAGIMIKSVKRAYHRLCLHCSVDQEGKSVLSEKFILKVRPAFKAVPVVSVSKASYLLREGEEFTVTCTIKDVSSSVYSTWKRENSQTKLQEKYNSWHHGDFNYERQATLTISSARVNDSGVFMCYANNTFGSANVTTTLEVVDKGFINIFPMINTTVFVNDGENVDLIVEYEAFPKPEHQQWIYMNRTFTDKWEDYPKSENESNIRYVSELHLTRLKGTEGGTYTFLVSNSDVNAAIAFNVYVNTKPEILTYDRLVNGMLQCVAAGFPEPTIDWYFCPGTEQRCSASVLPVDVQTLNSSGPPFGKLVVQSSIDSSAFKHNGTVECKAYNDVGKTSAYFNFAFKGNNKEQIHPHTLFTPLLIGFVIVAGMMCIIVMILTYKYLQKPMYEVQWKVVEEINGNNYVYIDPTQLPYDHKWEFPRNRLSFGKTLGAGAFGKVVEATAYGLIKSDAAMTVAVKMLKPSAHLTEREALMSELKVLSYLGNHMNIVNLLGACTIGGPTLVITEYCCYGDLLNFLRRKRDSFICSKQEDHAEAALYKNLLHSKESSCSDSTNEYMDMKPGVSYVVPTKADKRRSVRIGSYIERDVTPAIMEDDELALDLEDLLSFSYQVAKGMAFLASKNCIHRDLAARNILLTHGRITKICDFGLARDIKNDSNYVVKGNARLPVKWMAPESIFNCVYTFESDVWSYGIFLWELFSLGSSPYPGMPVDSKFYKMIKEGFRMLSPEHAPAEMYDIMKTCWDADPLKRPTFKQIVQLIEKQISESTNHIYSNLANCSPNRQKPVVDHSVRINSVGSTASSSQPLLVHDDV

B1: CD117 aptamer #1F (full length) (ssDNA)
DNA: GAGGCATACCAGCTTATTCAAGGGGCCGGGGCAAGGGGGGGGTACCGTGGTAGGACATAGTAAGTGCAATCTGCGAA
Kd: 6.3 nM
